The results in this text go back to patent US20240124575A1 (SIMCERE ZAIMING PHARMACEUTICAL, published 2024).

The target in assay [1] is T1, human CD33-His (extracellular domain Asp 18-His 259) (human, UniProt P20138 18-259).
T1 construct: range 18-259; bought protein; also called hCD33-his; human CD33 protein; not shown: His tag
In words: competitive ELISA vs coated S006-NB146-46 2ug/mL; soluble 25ug/ml. As to the method:
(§1) VHH antibodies and control antibodies with known epitopes were subjected to epitope classification with competitive ELISA. ELISA plates were coated with 2 μg/mL antibodies according to the method in Example 5.1; the human CD33-his protein was subjected to a gradient dilution from 30 μg/mL, and EC80 values (Tables 26-27) were calculated. ELISA plates were coated with 2 μg/mL antibodies; after 25 µg/mL of antibodies to be tested were added, a human CD33-his protein having an EC80 concentration corresponding to each of the antibodies to be tested was then added for incubation for 2 h. The plates were washed 5 times with PBS, then HRP-labeled anti-His antibodies (purchased from GenScript, Cat. No. A00612) were added for incubation for 1 h, and the plates were washed 5 times. A TMB substrate was added at 50 μL/well and incubated at room temperature for 10 min, then a stop solution (1.0 M HCl) was added at 50 μL/well. OD_{450 nm} values were read using an ELISA plate reader (Insight, purchased from PerkinElmer), and the competition rate between the antibodies was calculated according to the OD_{450 nm} values using a formula. The results are shown in FIGS. 12A-12B, the higher the value of the competition rate, the closer the epitopes to which two antibodies bind.

The target in assay [2] is T1, human CD33-His (extracellular domain …). In words: competitive ELISA vs coated S006-NB146-1 2ug/mL; soluble 25ug/ml. As to the method: as §1
Assay [3] deals with T2, human CD33-his protein (human, UniProt P20138 18-259).
T2 construct: range 18-259; bought protein; also called hCD33-his; recombinant human CD33-his; not shown: His tag
The assay is described as follows: competition ELISA, coated human CD33-his, vs Biotin-C33B904 at EC80; antibody 500 nM. Here is the method: The plate was sealed with a plastic film and incubated at 4° C. overnight, washed twice with PBS the next day, and a blocking solution [PBS+2% (w/w) BSA] was added for blocking at room temperature for 2 h. The blocking solution was discarded, and VHH-Fc antibody or negative control antibody serially diluted from 100 nM was added at 50 μL/well. After incubation at 37° C. for 2 h, the plate was washed 3 times with PBS. A secondary antibody labeled with HRP (horseradish peroxidase) (purchased from Sigma, Cat. No. A0170) was added. After incubation for 1 h at 37° C., the plate was washed 5 times with PBS. A TMB substrate was added at 50 μL/well. After incubation at room temperature for 10 min, a stop solution (1.0 N HCl) was added at 50 μL/well. The OD450 nm values were read on an ELISA plate reader (Multimode Plate Reader, EnSight, purchased from Perkin Elmer). The assay results for the binding of the VHH-Fc to hCD33-his by ELISA are shown in FIGS. 7A and 7B and Tables 11 and 12. […] The IgG control was hIgG1, and the data in the table are OD450 nm values.
ELISA plates were coated with 2 μg/mL human CD33-his protein according to the method in Example 5.1; the Biotin-C331B904 antibody was subjected to a gradient dilution from 15 μg/mL, and EC80 values (0.18 μg/mL) were calculated. […] OD_{450 nm} values were read using an ELISA plate reader (Insight, purchased from PerkinElmer). […]

T1 sequence (P20138 18-259 limits assumed): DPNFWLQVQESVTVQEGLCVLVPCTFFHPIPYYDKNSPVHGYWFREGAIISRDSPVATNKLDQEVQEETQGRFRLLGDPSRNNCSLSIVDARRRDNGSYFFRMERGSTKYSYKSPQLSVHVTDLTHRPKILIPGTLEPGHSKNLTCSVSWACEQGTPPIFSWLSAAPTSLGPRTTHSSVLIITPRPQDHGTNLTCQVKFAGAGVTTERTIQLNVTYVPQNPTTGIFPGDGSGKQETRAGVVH
T2 sequence (P20138 18-259 limits assumed): as above

B1: C33B904 hIgG1 (antibody, V domains shown)
VH: EVQLVESGGGLVQPGRSLRLSCAASGFTFDDYAMHWVRQAPGKGLEWVSGIGWSGGSIVYADSVKGRFTISRDNAKNSLYLQMNSLRAEDTALYYCAKDSPYGDFFDYWGQGTLVTVSS
VL: DIVMTQSPDSLAVSLGERATINCKSSQTVFYSSNNKNYLAWYQQKPGQPPKLLISWASTRKSGVPDRFSGSGSGTDFTLTVSSLQAEDVAVYYCQHYYSTPYTFGQGTKLEIKR
notes: intact human IgG1; variable regions from US20190382481A1; also called C33B3904; C331B904
For the molecule B1, the inhibition rate worked out at 92% in assay [1] and 100% in assay [2].

B2: C33B904 (antibody, human IgG1, kappa, V domains shown)
VH: B1 VH
VL: B1 VL
notes: control antibody, intact human IgG1 form; variable regions from US20190382481A1; also called C33B904 hIgG1; C331B904
In the case of B2, the “OD450 (Biotin-C33B904 signal)” value in assay [3] came to 0.08.
